Laboratory results from patent US20220403023A1.

How the values were obtained:
[1] = molecular target: CD47 on human origin tumor cells (human) (UniProt Q08722); test: FACS on 293F cells
[2] = molecular target: CD47 on human origin tumor cells (human) (UniProt Q08722); test: FACS on A204 cells
[3] = molecular target: CD47 on human origin tumor cells (human) (UniProt Q08722); test: FACS on A375 cells
[4] = molecular target: CD47 on human origin tumor cells (human) (UniProt Q08722); test: FACS on A431 cells
[5] = molecular target: CD47 on human origin tumor cells (human) (UniProt Q08722); test: FACS on FaOb cells
[6] = molecular target: CD47 on human origin tumor cells (human) (UniProt Q08722); test: FACS on HT29 cells
[7] = molecular target: CD47 on human origin tumor cells (human) (UniProt Q08722); test: FACS on BT474 cells
[8] = molecular target: CD47 on human origin tumor cells (human) (UniProt Q08722); test: FACS on HepG2 cells
[9] = molecular target: CD47 on human origin tumor cells (human) (UniProt Q08722); test: FACS on Hut78 cells
[10] = molecular target: CD47 on human origin tumor cells (human) (UniProt Q08722); test: FACS on Ramos cells
[11] = molecular target: CD47 on human origin tumor cells (human) (UniProt Q08722); test: FACS on BxPC-3 cells
[12] = molecular target: CD47 on human origin tumor cells (human) (UniProt Q08722); test: FACS on CaLu-6 cells
[13] = molecular target: CD47 on human origin tumor cells (human) (UniProt Q08722); test: FACS on Jurkat.268 cells
[14] = molecular target: CD47 on human origin tumor cells (human) (UniProt Q08722); test: FACS on MDA-MB-453 cells
[15] = molecular target: 4-1B8.his; test: non-specific binding ELISA, protein coated 1 µg/mL
[16] = molecular target: CD147.his; test: non-specific binding ELISA, protein coated 1 µg/mL
[17] = molecular target: CD22.his; test: non-specific binding ELISA, protein coated 1 µg/mL
[18] = molecular target: CD3.his; test: non-specific binding ELISA, protein coated 1 µg/mL
[19] = molecular target: CD40.his; test: non-specific binding ELISA, protein coated 1 µg/mL
[20] = molecular target: CTLA4.his; test: non-specific binding ELISA, protein coated 1 µg/mL
[21] = molecular target: FGFR.his; test: non-specific binding ELISA, protein coated 1 µg/mL
[22] = molecular target: Factor Eight; test: non-specific binding ELISA, protein coated 1 µg/mL
[23] = molecular target: HER3.his (Homo sapiens (Human)) (UniProt P21860); test: non-specific binding ELISA, protein coated 1 µg/mL
[24] = molecular target: HSA. (UniProt P02768); test: non-specific binding ELISA, protein coated 1 µg/mL
[25] = molecular target: OX40.his; test: non-specific binding ELISA, protein coated 1 µg/mL
[26] = molecular target: PD-1.his (Homo sapiens (Human)) (UniProt Q15116); test: non-specific binding ELISA, protein coated 1 µg/mL
[27] = molecular target: VEGF.his; test: non-specific binding ELISA, protein coated 1 µg/mL
[28] = molecular target: VEGFR2.his; test: non-specific binding ELISA, protein coated 1 µg/mL
[29] = molecular target: CD47 on human red blood cells (human) (UniProt Q08722); test: FACS on human red blood cells, goat anti-human IgG-Fc PE; blank (Neg) 232
[30] = molecular target: human CD47 on engineered CHO-K1 cells (human) (UniProt Q08722); test: competition FACS against human SIRPα-His (1 µg/mL) on CHOK1-huCD47 cells; ligand only 1086
[31] = molecular target: human CD47 ECD protein (human) (UniProt Q08722); test: ELISA on plate-coated human CD47 ECD (1 µg/mL), goat anti-human IgG-Fc-HRP, OD450; blank (Neg) 0.102
[32] = molecular target: human CD47 ECD protein (human) (UniProt Q08722); test: competition ELISA against human SIRPα-His (1 µg/mL) on plate-coated human CD47 ECD; ligand only 1.438
[33] = molecular target: human CD47 on engineered CHO-K1 cells (human) (UniProt Q08722); test: FACS on CHO-K1 cells expressing human CD47 (CHOK1-huCD47), goat anti-human IgG-Fc PE; blank (Neg) 34.8
[34] = molecular target: cynomolgus monkey CD47 on engineered CHO-K1 cells (cynomolgus monkey); test: FACS on CHO-K1 cells expressing cynomolgus CD47 (CHOK1-cynoCD47), goat anti-human IgG-Fc PE; blank (Neg) 47.6

Chain of VEGFR2.his (P35968 20-764): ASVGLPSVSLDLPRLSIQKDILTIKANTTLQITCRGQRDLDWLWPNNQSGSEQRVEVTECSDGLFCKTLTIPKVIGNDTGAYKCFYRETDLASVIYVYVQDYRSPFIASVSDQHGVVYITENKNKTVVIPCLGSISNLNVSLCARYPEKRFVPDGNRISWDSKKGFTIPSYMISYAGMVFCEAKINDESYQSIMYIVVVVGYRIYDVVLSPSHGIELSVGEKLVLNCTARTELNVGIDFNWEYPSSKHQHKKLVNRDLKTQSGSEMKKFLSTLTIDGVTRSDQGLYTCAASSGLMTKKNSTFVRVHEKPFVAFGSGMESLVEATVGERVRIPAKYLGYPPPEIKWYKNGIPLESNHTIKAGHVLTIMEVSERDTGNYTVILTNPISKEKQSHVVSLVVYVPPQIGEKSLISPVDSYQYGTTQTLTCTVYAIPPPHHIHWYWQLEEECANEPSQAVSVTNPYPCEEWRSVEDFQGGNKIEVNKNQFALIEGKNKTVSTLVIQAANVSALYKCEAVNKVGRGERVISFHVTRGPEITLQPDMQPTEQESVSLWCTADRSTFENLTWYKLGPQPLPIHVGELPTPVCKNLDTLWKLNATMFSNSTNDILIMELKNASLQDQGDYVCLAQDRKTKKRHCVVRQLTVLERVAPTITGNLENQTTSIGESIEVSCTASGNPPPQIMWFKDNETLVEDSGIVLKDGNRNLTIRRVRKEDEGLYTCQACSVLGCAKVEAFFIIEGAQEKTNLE
Chain of CTLA4.his (P16410 36-161): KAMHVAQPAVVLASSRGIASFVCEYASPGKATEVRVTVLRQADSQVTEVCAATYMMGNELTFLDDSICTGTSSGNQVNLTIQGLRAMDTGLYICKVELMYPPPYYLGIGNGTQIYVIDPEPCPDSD
Chain of OX40.his (P43489 29-214): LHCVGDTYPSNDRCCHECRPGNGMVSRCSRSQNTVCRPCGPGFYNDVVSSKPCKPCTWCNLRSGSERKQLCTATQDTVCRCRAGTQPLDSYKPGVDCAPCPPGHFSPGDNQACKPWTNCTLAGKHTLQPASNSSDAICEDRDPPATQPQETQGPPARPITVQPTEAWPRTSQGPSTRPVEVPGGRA
Chain of CD40.his (P25942 21-193): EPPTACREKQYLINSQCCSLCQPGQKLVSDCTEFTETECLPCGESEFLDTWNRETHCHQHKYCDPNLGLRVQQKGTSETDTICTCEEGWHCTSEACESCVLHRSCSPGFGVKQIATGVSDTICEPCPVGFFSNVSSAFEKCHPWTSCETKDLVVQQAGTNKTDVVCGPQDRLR
Chain of 4-1B8.his (Q07011 24-186): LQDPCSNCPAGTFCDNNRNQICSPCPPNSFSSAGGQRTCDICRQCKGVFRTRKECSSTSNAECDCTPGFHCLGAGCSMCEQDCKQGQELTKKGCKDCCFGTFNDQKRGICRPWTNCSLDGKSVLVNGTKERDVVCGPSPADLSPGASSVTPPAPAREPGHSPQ
Chain of PD-1.his (Homo sapiens (Human)) (Q15116 25-170 limits assumed): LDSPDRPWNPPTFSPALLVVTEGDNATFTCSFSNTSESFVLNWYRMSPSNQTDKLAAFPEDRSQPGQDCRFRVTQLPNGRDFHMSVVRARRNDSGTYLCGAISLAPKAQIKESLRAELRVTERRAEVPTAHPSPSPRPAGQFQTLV

Substance | MFI [1] | MFI [2] | MFI [3] | MFI [4] | MFI [5] | MFI [6] | MFI [7] | MFI [8] | MFI [9] | MFI [10] | MFI [11] | MFI [12] | MFI [13] | MFI [14] | ELISA-OD450 [15] | ELISA-OD450 [16] | ELISA-OD450 [17] | ELISA-OD450 [18] | ELISA-OD450 [19] | ELISA-OD450 [20] | further results
hIgG4K Isotype control (antibody) | 56.4 | 34.7 | 22.8 | 39.5 | 36.2 | 44.3 | 20.8 | 32.2 | 49.7 | 74.4 | 42.9 | 23.3 | 36.9 | 32.2 | 0.0463 | 0.0424 | 0.0451 | 0.0479 | 0.213 | 0.0562 | ELISA-OD450 [21]: 0.133; ELISA-OD450 [22]: 0.181; ELISA-OD450 [23]: 0.044; ELISA-OD450 [24]: 0.322; ELISA-OD450 [25]: 0.0508; ELISA-OD450 [26]: 3.71; ELISA-OD450 [27]: 0.0452; ELISA-OD450 [28]: 0.0432
hIgG4L Isotype control (antibody) | 28.7 | 42.4 | 49.5 | 251 | 429 | 45.7 | 19.1 | 27.3 | 50.2 | 68.4 | 110 | 88.4 | 64.3 | 28.3 | 0.0463 | 0.0443 | 0.0467 | 0.0518 | 0.205 | 0.0571 | ELISA-OD450 [21]: 0.137; ELISA-OD450 [22]: 0.0481; ELISA-OD450 [23]: 0.0445; ELISA-OD450 [24]: 0.335; ELISA-OD450 [25]: 0.051; ELISA-OD450 [26]: 0.227; ELISA-OD450 [27]: 0.0463; ELISA-OD450 [28]: 0.0441
IgG4 isotype control (antibody) |  |  |  |  |  |  |  |  |  |  |  |  |  |  |  |  |  |  |  |  | Max MFI [29]: 238 MFI; Max Inhibit% [30]: 12.2%; Min MFI [30]: 953 MFI; Max OD [31]: 0.123 OD450; Max Inhibit% [32]: 21.2%; Min OD [32]: 1.13 OD450; Max MFI [33]: 66 MFI; Max MFI [34]: 97.9 MFI
